Measured values reported in publication PMC8558838 (The Journal of Experimental Medicine, 2021).

B1: full-length mouse LIGHT, on cells (mLIGHT-IRES-EGFP) [mouse] / full-length WT mouse HVEM-mCherry, on cells [mouse] (parent complex)
chain 1: MESVVQPSVFVVDGQTDIPFRRLEQNHRRRRCGTVQVSLALVLLLGAGLATQGWFLLRLHQRLGDIVAHLPDGGKGSWEKLIQDQRSHQANPAAHLTGANASLIGIGGPLLWETRLGLAFLRGLTYHDGALVTMEPGYYYVYSKVQLSGVGCPQGLANGLPITHGLYKRTSRYPKELELLVSRRSPCGRANSSRVWWDSSFLGGVVHLEAGEEVVVRVPGNRLVRPRDGTRSYFGAFMV
chain 2: QPSCRQEEFLVGDECCPMCNPGYHVKQVCSEHTGTVCAPCPPQTYTAHANGLSKCLPCGVCDPDMGLLTWQECSSWKDTVCRCIPGYFCENQDGSHCSTCLQHTTCPPGQRVEKRGTHDQDTVCADCLTGTFSLGGTQEECLPWTNCSAFQQEVRRGTNSTDTTCSSQVVYYVVSILLPLVIVGAGIAGFLICTRRHLHTSSVAKELEPFQEQQENTIRFPVTEVGFAETEEETASN

Variants of: B1
Assay: flow cytometry, cell–cell method

**Q.** For chain 2 QPSCRQEEFLVGDECCPMCNPGYHVKQVCSEHTGTVCAPCPPQTYTAHANGLSKCLPCGVCDPDMGLLTWQECSSWKDTVCRCIPGYFCENQDGSHCDTCLQHTTCPPGQRVEKRGTHDQDTVCADCLTGTFSLGGTQEECLPWTNCSAFQQEVRRGTNSTDTTCSSQVVYYVVSILLPLVIVGAGIAGFLICTRRHLHTSSVAKELEPFQEQQENTIRFPVTEVGFAETEEETASN [chain 2 S98D], which ratio to parent is on record?
**A.** 0.8

**Q.** With chain 2 QPSCRQEEFLVGDECCPMCNPGYHVDQVCSEHTGTVCAPCPPQTYTAHANGLSKCLPCGVCDPDMGLLTWQECSSWKDTVCRCIPGYFCENQDGSHCSTCLQHTTCPPGQRVEKRGTHDQDTVCADCLTGTFSLGGTQEECLPWTNCSAFQQEVRRGTNSTDTTCSSQVVYYVVSILLPLVIVGAGIAGFLICTRRHLHTSSVAKELEPFQEQQENTIRFPVTEVGFAETEEETASN [chain 2 K26D] as the variant, how does the ratio to parent read?
**A.** 1.1

**Q.** Which ratio to parent does the source give for chain 2 QPSCRQEEFLVGDECCPMCNPGYHVKQVCSEHTGTVCAPCPPQTYTAHANGLSKCAPCGVCDPDMGLLTWQECSSWKDTVCRCIPGYFCENQDGSHCSTCLQHTTCPPGQRVEKRGTHDQDTVCADCLTGTFSLGGTQEECLPWTNCSAFQQEVRRGTNSTDTTCSSQVVYYVVSILLPLVIVGAGIAGFLICTRRHLHTSSVAKELEPFQEQQENTIRFPVTEVGFAETEEETASN [chain 2 L56A] here?
**A.** 0.8

**Q.** Which ratio to parent does the source give for chain 2 QPSCRQEEFLVGDECCPMCNPGYHVKQVCAEHTGTVCAPCPPQTYTAHANGLSKCLPCGVCDPDMGLLTWQECSSWKDTVCRCIPGYFCENQDGSHCSTCLQHTTCPPGQRVEKRGTHDQDTVCADCLTGTFSLGGTQEECLPWTNCSAFQQEVRRGTNSTDTTCSSQVVYYVVSILLPLVIVGAGIAGFLICTRRHLHTSSVAKELEPFQEQQENTIRFPVTEVGFAETEEETASN [chain 2 S30A] here?
**A.** 1

**Q.** How did the ratio to parent turn out when chain 2 QPSCRQEEFLVGDECCPMCNPGYHVKQVCSEHTGTDCAPCPPQTYTAHANGLSKCLPCGVCDPDMGLLTWQECSSWKDTVCRCIPGYFCENQDGSHCSTCLQHTTCPPGQRVEKRGTHDQDTVCADCLTGTFSLGGTQEECLPWTNCSAFQQEVRRGTNSTDTTCSSQVVYYVVSILLPLVIVGAGIAGFLICTRRHLHTSSVAKELEPFQEQQENTIRFPVTEVGFAETEEETASN [chain 2 V36D] was run?
**A.** 0.9

**Q.** Which ratio to parent does the source give for chain 2 QPSCRQEEFLVGDECCPMCNPGYHVKQVCSEHTGTACAPCPPQTYTAHANGLSKCLPCGVCDPDMGLLTWQECSSWKDTVCRCIPGYFCENQDGSHCSTCLQHTTCPPGQRVEKRGTHDQDTVCADCLTGTFSLGGTQEECLPWTNCSAFQQEVRRGTNSTDTTCSSQVVYYVVSILLPLVIVGAGIAGFLICTRRHLHTSSVAKELEPFQEQQENTIRFPVTEVGFAETEEETASN [chain 2 V36A] here?
**A.** 1

**Q.** chain 2 QPSCDQEEFLVGDECCPMCNPGYHVKQVCSEHTGTVCAPCPPQTYTAHANGLSKCLPCGVCDPDMGLLTWQECSSWKDTVCRCIPGYFCENQDGSHCSTCLQHTTCPPGQRVEKRGTHDQDTVCADCLTGTFSLGGTQEECLPWTNCSAFQQEVRRGTNSTDTTCSSQVVYYVVSILLPLVIVGAGIAGFLICTRRHLHTSSVAKELEPFQEQQENTIRFPVTEVGFAETEEETASN [chain 2 R5D] was tested. Which ratio to parent did it give?
**A.** 1.1

**Q.** With chain 2 QPSCRQEEFLVGDECCPMCNPGYHVKQVCSEHTGTVCDPCPPQTYTAHANGLSKCLPCGVCDPDMGLLTWQECSSWKDTVCRCIPGYFCENQDGSHCSTCLQHTTCPPGQRVEKRGTHDQDTVCADCLTGTFSLGGTQEECLPWTNCSAFQQEVRRGTNSTDTTCSSQVVYYVVSILLPLVIVGAGIAGFLICTRRHLHTSSVAKELEPFQEQQENTIRFPVTEVGFAETEEETASN [chain 2 A38D] as the variant, how does the ratio to parent read?
**A.** 1.1

**Q.** With chain 2 QPSCRQEEFLVGDECCPMCNPGYHVKQVCSEHTGTVCWPCPPQTYTAHANGLSKCLPCGVCDPDMGLLTWQECSSWKDTVCRCIPGYFCENQDGSHCSTCLQHTTCPPGQRVEKRGTHDQDTVCADCLTGTFSLGGTQEECLPWTNCSAFQQEVRRGTNSTDTTCSSQVVYYVVSILLPLVIVGAGIAGFLICTRRHLHTSSVAKELEPFQEQQENTIRFPVTEVGFAETEEETASN [chain 2 A38W] as the variant, how does the ratio to parent read?
**A.** 0.9

**Q.** chain 2 QPSCRQEEFLVGDECCPDCNPGYHVKQVCSEHTGTVCAPCPPQTYTAHANGLSKCLPCGVCDPDMGLLTWQECSSWKDTVCRCIPGYFCENQDGSHCSTCLQHTTCPPGQRVEKRGTHDQDTVCADCLTGTFSLGGTQEECLPWTNCSAFQQEVRRGTNSTDTTCSSQVVYYVVSILLPLVIVGAGIAGFLICTRRHLHTSSVAKELEPFQEQQENTIRFPVTEVGFAETEEETASN [chain 2 M18D] was tested. Which ratio to parent did it give?
**A.** 0.9

**Q.** For chain 2 QPSCRQEEFLVGDECCPACNPGYHVKQVCSEHTGTVCAPCPPQTYTAHANGLSKCLPCGVCDPDMGLLTWQECSSWKDTVCRCIPGYFCENQDGSHCSTCLQHTTCPPGQRVEKRGTHDQDTVCADCLTGTFSLGGTQEECLPWTNCSAFQQEVRRGTNSTDTTCSSQVVYYVVSILLPLVIVGAGIAGFLICTRRHLHTSSVAKELEPFQEQQENTIRFPVTEVGFAETEEETASN [chain 2 M18A], which ratio to parent is on record?
**A.** 1.2

**Q.** chain 2 QPSCRQEAFLVGDECCPMCNPGYHVKQVCSEHTGTVCAPCPPQTYTAHANGLSKCLPCGVCDPDMGLLTWQECSSWKDTVCRCIPGYFCENQDGSHCSTCLQHTTCPPGQRVEKRGTHDQDTVCADCLTGTFSLGGTQEECLPWTNCSAFQQEVRRGTNSTDTTCSSQVVYYVVSILLPLVIVGAGIAGFLICTRRHLHTSSVAKELEPFQEQQENTIRFPVTEVGFAETEEETASN [chain 2 E8A] was tested. Which ratio to parent did it give?
**A.** 0.9

**Q.** Which ratio to parent does the source give for chain 2 QPSCRQERFLVGDECCPMCNPGYHVKQVCSEHTGTVCAPCPPQTYTAHANGLSKCLPCGVCDPDMGLLTWQECSSWKDTVCRCIPGYFCENQDGSHCSTCLQHTTCPPGQRVEKRGTHDQDTVCADCLTGTFSLGGTQEECLPWTNCSAFQQEVRRGTNSTDTTCSSQVVYYVVSILLPLVIVGAGIAGFLICTRRHLHTSSVAKELEPFQEQQENTIRFPVTEVGFAETEEETASN [chain 2 E8R] here?
**A.** 1

**Q.** For chain 2 QPSCRQEEFLVGDECCPMCNPGYHVKQVCSEHTDTVCAPCPPQTYTAHANGLSKCLPCGVCDPDMGLLTWQECSSWKDTVCRCIPGYFCENQDGSHCSTCLQHTTCPPGQRVEKRGTHDQDTVCADCLTGTFSLGGTQEECLPWTNCSAFQQEVRRGTNSTDTTCSSQVVYYVVSILLPLVIVGAGIAGFLICTRRHLHTSSVAKELEPFQEQQENTIRFPVTEVGFAETEEETASN [chain 2 G34D], which ratio to parent is on record?
**A.** 0.9

**Q.** For chain 2 QPSCRQEEFLVGDECCPMCNPGYHVKQVCSEHTATVCAPCPPQTYTAHANGLSKCLPCGVCDPDMGLLTWQECSSWKDTVCRCIPGYFCENQDGSHCSTCLQHTTCPPGQRVEKRGTHDQDTVCADCLTGTFSLGGTQEECLPWTNCSAFQQEVRRGTNSTDTTCSSQVVYYVVSILLPLVIVGAGIAGFLICTRRHLHTSSVAKELEPFQEQQENTIRFPVTEVGFAETEEETASN [chain 2 G34A], which ratio to parent is on record?
**A.** 1.2

**Q.** Which ratio to parent does the source give for chain 2 QPSCRQEEFLVGDECCPMCNPGYHVKQVCSEHTGTVCAPCPPQTYTAHANGLSKCLPCGVCDPDMGLLTWQECSSWKDTVCRCIPGYFCENQDGSHCSACLQHTTCPPGQRVEKRGTHDQDTVCADCLTGTFSLGGTQEECLPWTNCSAFQQEVRRGTNSTDTTCSSQVVYYVVSILLPLVIVGAGIAGFLICTRRHLHTSSVAKELEPFQEQQENTIRFPVTEVGFAETEEETASN [chain 2 T99A] here?
**A.** 0.8

**Q.** Which ratio to parent does the source give for chain 2 QPSCRQEEFLVGDECCPMCNPGYHVKQVCSEHTGTVCAPCPPQTYTAHANGLSKCLPCGVCDPDMGLLTWQECSSWKDTVCRCIPGYFCENQDGSHCSDCLQHTTCPPGQRVEKRGTHDQDTVCADCLTGTFSLGGTQEECLPWTNCSAFQQEVRRGTNSTDTTCSSQVVYYVVSILLPLVIVGAGIAGFLICTRRHLHTSSVAKELEPFQEQQENTIRFPVTEVGFAETEEETASN [chain 2 T99D] here?
**A.** 0.7

**Q.** With chain 2 QPSCRQEEFLVGDECCPMCNPGYHVKQVCSEHTGTVCAPCPPQTYTAHANGLSKCLPCGVCDPDMGLLTWQECSSWDDTVCRCIPGYFCENQDGSHCSTCLQHTTCPPGQRVEKRGTHDQDTVCADCLTGTFSLGGTQEECLPWTNCSAFQQEVRRGTNSTDTTCSSQVVYYVVSILLPLVIVGAGIAGFLICTRRHLHTSSVAKELEPFQEQQENTIRFPVTEVGFAETEEETASN [chain 2 K77D] as the variant, how does the ratio to parent read?
**A.** 1.4

**Q.** Which ratio to parent does the source give for chain 2 QPSCRQEEFLVGDECCPMCNPGYHVKQVCSEHTGTVCAPCPPQTYTAHANGLSKCLPCGVCDPDMGLLTWQECSSWADTVCRCIPGYFCENQDGSHCSTCLQHTTCPPGQRVEKRGTHDQDTVCADCLTGTFSLGGTQEECLPWTNCSAFQQEVRRGTNSTDTTCSSQVVYYVVSILLPLVIVGAGIAGFLICTRRHLHTSSVAKELEPFQEQQENTIRFPVTEVGFAETEEETASN [chain 2 K77A] here?
**A.** 1.8

**Q.** For chain 2 QPSCRQEEFLVGDECCPMCNPGYHVKQVCSEHTGDVCAPCPPQTYTAHANGLSKCLPCGVCDPDMGLLTWQECSSWKDTVCRCIPGYFCENQDGSHCSTCLQHTTCPPGQRVEKRGTHDQDTVCADCLTGTFSLGGTQEECLPWTNCSAFQQEVRRGTNSTDTTCSSQVVYYVVSILLPLVIVGAGIAGFLICTRRHLHTSSVAKELEPFQEQQENTIRFPVTEVGFAETEEETASN [chain 2 T35D], which ratio to parent is on record?
**A.** 0.3

**Q.** For chain 2 QPSCRQEEFLVGDECCPMCNPGYHVKQVCSEHTGTVCAPCPPQTYTAHAAGLSKCLPCGVCDPDMGLLTWQECSSWKDTVCRCIPGYFCENQDGSHCSTCLQHTTCPPGQRVEKRGTHDQDTVCADCLTGTFSLGGTQEECLPWTNCSAFQQEVRRGTNSTDTTCSSQVVYYVVSILLPLVIVGAGIAGFLICTRRHLHTSSVAKELEPFQEQQENTIRFPVTEVGFAETEEETASN [chain 2 N50A], which ratio to parent is on record?
**A.** 0.5

**Q.** How did the ratio to parent turn out when chain 2 QPSCRQEEFLVGDECCPMCNPGYHVKQVCSEHTGTVCAPCPPQTYTAHANGASKCLPCGVCDPDMGLLTWQECSSWKDTVCRCIPGYFCENQDGSHCSTCLQHTTCPPGQRVEKRGTHDQDTVCADCLTGTFSLGGTQEECLPWTNCSAFQQEVRRGTNSTDTTCSSQVVYYVVSILLPLVIVGAGIAGFLICTRRHLHTSSVAKELEPFQEQQENTIRFPVTEVGFAETEEETASN [chain 2 L52A] was run?
**A.** 0.7
